Experimental findings from patent US20020076765A1 (IOWA STATE UNIVERSITY RESEARCH FOUNDATION, published 2002) are described below.

First the molecules themselves.
B1: bovine tumor necrosis factor-alpha (TNF-alpha) (ligand, UniProt Q06599 78-234, looked up)
chain: LRSSSQASSNKPVAHVVADINSPGQLRWWDSYANALMANGVKLEDNQLVVPADGLYLIYSQVLFRGQGCPSTPLFLTHTISRIAVSYQTKVNILSAIKSPCHRETPEWAEAKPWYEPIYQGGVFQLEKGDRLSAEINLPDYLDYAESGQVYFGIIAL
notes: Not purified; The whey samples served as the source of bovine TNF-alpha; also called bovine TNF-α; bovine TNF
B2: soluble bovine tumor necrosis factor receptor-I (TNF-RI) (receptor)
chain: LVPHPGDLEKRESPCPQGKYNHPQNSTICCTKCHKGTYLYNDCPGPGRDTDCRVCAPGTYTALENHLRRCLSCSRCRDEMFQVEISPCVVDRDTVCGCRKNQYREYWGETGFRCLNCSLCPNGTVNIPCQERQDTICHCHMGFFLKGAKCISCHDCKNKECEKLCPTRPSTGKDSQDPGTT

The target in assay [1] is B2. Kind of assay: inferred from the TNF cytotoxicity inhibition assay on WEHI 164 cells; no direct binding assay.
Assay [2] addresses B1. Kind of assay: cell-based or functional assay.

As to B1, in assay [1], the binding result was “binds”.

With B2, the “fold potency at blocking bovine TNF-α, against MAb BC9” value in assay [2] was > 2 fold (vs MAb BC9).
